These results are taken from patent CN113637078A (WEST CHINA HOSPITAL SICHUAN UNIV, dated 2021).

The target in assay [1] is T1, 蛋白激酶p38δ with 2×Strep tag (pET28a-p38δ-2×Strep) (Homo sapiens (Human), UniProt O15264 1-365).
T1 construct: Recombinant, from E. coli BL21(DE3); The tag is placed at the C-terminus only on the strength of the vector name pET28a-p38γ/p38δ-2×Strep; Linkers and other vector residues are not described; not shown: 2×Strep tag
T1 sequence: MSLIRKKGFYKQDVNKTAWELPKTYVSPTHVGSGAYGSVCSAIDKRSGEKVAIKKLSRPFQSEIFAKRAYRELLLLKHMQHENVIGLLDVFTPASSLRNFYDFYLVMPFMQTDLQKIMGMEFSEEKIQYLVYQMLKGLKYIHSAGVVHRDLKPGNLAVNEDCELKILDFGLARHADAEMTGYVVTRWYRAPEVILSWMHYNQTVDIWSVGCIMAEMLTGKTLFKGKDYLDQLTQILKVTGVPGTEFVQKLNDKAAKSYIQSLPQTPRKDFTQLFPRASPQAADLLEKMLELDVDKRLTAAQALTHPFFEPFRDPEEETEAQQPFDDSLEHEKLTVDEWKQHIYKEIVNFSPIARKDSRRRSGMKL
The assay is described as follows: indirect ELISA, p38δ coated, nanobody at 0-6.4 μM, anti-FLAG detection, 4-parameter fit. (In an ELISA, binding on a coated surface is turned into a signal by an enzyme label.)

The target in assay [2] is T2, p38γ with 2×Strep tag (pET28a-p38γ-2×Strep) (Homo sapiens (Human), UniProt P53778 1-367).
T2 construct: Recombinant, from E. coli BL21(DE3); The tag is placed at the C-terminus only on the strength of the vector name; not shown: 2×Strep tag
T2 sequence: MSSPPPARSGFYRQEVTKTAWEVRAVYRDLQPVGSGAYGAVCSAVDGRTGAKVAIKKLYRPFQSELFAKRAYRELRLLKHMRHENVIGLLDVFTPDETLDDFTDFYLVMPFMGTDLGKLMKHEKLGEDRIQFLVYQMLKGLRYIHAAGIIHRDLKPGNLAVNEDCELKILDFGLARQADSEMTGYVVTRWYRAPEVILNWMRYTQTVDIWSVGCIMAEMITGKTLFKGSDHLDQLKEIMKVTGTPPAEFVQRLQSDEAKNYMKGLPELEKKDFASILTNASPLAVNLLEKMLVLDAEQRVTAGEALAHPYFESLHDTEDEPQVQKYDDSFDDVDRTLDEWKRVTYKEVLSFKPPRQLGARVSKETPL
The assay is described as follows: ELISA, antigen coated on plate, periplasmic extract of the nanobody, anti-FLAG detection, OD450.

For the next assay, the target named is p38α (UniProt Q16539 1-360, limits assumed). The assay is described as above.
For another assay, the target named is p38β (UniProt Q15759 1-364, limits assumed). Described as above.
Sequence of p38β (Q15759 whole entry): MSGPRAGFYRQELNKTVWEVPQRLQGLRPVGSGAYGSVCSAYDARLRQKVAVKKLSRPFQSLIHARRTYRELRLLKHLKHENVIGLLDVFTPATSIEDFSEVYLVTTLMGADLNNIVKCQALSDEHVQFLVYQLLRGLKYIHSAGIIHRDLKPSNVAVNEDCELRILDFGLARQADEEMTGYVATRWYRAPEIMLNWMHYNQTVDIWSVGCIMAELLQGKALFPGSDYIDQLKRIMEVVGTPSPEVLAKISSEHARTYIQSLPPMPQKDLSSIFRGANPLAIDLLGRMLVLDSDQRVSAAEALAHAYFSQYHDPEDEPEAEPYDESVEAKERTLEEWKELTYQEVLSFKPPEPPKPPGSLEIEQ

Sequence of p38α (Q16539 whole entry): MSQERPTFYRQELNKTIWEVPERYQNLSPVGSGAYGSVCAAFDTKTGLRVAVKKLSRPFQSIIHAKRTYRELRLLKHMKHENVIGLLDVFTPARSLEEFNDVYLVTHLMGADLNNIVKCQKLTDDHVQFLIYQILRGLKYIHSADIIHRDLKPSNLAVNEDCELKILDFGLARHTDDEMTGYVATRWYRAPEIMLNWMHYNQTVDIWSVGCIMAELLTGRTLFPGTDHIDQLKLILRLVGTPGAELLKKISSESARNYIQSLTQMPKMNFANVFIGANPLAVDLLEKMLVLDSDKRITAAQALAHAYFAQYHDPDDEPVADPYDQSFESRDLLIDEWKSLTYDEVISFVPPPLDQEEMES

B1: 纳米抗体Nb13-6 (nanobody against protein kinase p38δ), C-terminal FLAG tag (VHH)
VHH: QVQLVESGGALVQPGGSLRLSCAASGLEPSMFSLRWYRQAPGKEREWVCGISKWFDDMSYEDSVKGRFTCSRDDARNTVYLQLNSLKPEDTAVYYCASLRPTFLPGLMRTRYWGQGTQVTVSS
notes: Expressed from pET22b in E. coli BL21(DE3); Used mostly as periplasmic extract; Other vector-derived residues are not described; also called 针对蛋白激酶p38δ的纳米抗体; not shown: FLAG tag fused at the C-terminus
What is called Kd is the concentration at which binding is half-saturated. B1 came in with a Kd in assay [1] of 499 nM. The binding result (in assay [2]; with p38α; in the assay with p38β) was “no binding” throughout.
